Results from patent US20220125891A1 (OSAKA UNIVERSITY, published 2022).
Positions of bridges follow the written chain, without caps; N, C: chain ends. Non-standard residues stand in square brackets, D forms with d. No end group written: not given here. NMeA = CN[C@@H](C)C(=O)O; dNMeA = CN[C@H](C)C(=O)O

T1: full-length human Regnase-1 with a FLAG tag on the N-terminal side and a biotin ligase BirA recognition … (human, UniProt Q5D1E8 1-599, biotinylated where required ; Biotinylated at the BirA recognition sequence where required. That sequence is not in the letters.)
T1 construct: Expressed in Expi293 cells, purified on FLAG M2 agarose and by gel filtration; also called full-length Regnase-1; human full-length Regnase-1
T1 sequence: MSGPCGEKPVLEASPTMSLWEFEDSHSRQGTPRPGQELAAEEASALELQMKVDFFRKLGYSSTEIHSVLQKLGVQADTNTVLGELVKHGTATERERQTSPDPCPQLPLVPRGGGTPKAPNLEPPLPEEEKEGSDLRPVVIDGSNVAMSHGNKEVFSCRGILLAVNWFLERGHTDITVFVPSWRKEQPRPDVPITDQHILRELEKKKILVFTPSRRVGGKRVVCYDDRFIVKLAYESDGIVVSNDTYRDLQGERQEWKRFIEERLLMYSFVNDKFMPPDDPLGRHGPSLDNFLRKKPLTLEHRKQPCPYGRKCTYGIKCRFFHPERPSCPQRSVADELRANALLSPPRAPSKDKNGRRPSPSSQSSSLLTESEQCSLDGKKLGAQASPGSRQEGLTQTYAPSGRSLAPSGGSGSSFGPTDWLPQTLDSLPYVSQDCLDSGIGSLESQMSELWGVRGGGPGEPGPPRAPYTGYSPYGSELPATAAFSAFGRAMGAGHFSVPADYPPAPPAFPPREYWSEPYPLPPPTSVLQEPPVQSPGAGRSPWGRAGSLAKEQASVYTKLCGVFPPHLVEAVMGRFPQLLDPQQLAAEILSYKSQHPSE

T2: Reg1_301-599 (human Regnase-1 amino acids 301 to 599, FLAG tag on the N-terminal side, BirA recognition … (human))
T2 sequence (Q5D1E8 301-599, looked up): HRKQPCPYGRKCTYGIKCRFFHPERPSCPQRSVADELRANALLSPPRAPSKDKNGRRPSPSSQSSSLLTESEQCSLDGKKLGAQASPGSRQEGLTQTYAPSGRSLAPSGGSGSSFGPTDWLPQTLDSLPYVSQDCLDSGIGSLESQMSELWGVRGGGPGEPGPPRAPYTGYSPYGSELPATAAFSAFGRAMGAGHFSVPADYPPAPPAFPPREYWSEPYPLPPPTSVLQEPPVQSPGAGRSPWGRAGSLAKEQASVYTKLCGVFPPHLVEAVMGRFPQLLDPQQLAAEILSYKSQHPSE


Experiments:
[1] = biological target: T1, full-length human Regnase-1 with a FLAG …; test: affinity selection-MS (SEC, LC/MS), 1 µM each
[2] = biological target: T3, ΔCTD_Reg1 (human Regnase-1 amino acids 1 to 546, FLAG tag on the N-terminal side, BirA recognition sequence … (human)); test: cell-based or functional assay
[3] = biological target: T1, full-length human Regnase-1 with a FLAG …; test: cell-based or functional assay
[4] = biological target: T2, Reg1_301-599 (human Regnase-1 amino …); test: cell-based or functional assay
[5] = biological target: T1, full-length human Regnase-1 with a FLAG …; test: AlphaScreen, blocks TBK1 binding to FL_Reg1
[6] = biological target: T3, ΔCTD_Reg1 (human Regnase-1 amino acids …); test: cell-based or functional assay; remark: listed apart in the source
[7] = biological target: T1, full-length human Regnase-1 with a FLAG …; test: cell-based or functional assay; remark: listed apart in the source
[8] = biological target: T2, Reg1_301-599 (human Regnase-1 amino …); test: cell-based or functional assay; remark: listed apart in the source
[9] = biological target: T1, full-length human Regnase-1 with a FLAG …; test: AlphaScreen, blocks IKKβ binding to FL_Reg1

Row | AS-MS ratio(%) [1] [%] | IC50, phosphorylation by IKKβ [2] [µM] | IC50, phosphorylation by IKKβ [3] [µM] | IC50, phosphorylation by IKKβ [4] [µM] | IC50 [5] [µM] | IC50, phosphorylation by TBK1 [6] [µM] | IC50, phosphorylation by TBK1 [7] [µM] | IC50, phosphorylation by TBK1 [8] [µM] | IC50 [9] [µM] | Binder
1 | 4.2 | 9 | 1.6 | 6.5 | 7.1 | 5.2 | 3.1 | 6.8 | 20.1 | [NMeA]RFGVWSWIYPD (lactam N-12) [PP14]
2 | 5.1 | > 62.1 | 22.3 | > 62.1 | 60.9 | 55.6 | 29.1 | > 62.1 | > 62.1 | [NMeA]KFAQFRWIYPD (lactam N-12) [PP11]
3 | 0.1 | 43.2 | 3.6 | 23.2 | 13.8 | 17.7 | 8.4 | 18 | 16.9 | [NMeA]RFRQWKWVYPD (lactam N-12) [PP13]
4 | 6.9 | 47.7 | 27 | 27.6 | 13.1 | 16.1 | 18.9 | 16.3 | > 62.1 | [dNMeA]EDTPEDDHD (lactam N-10) [PP25]
5 | 71.6 | 0.2 | 0.4 | 0.5 | < 0.06 | 1.8 | 0.6 | 0.9 | < 0.06 | [NMeA]DIWFDYWDYD (lactam N-11) [PP18]
6 | 66.7 | 31 | 5.6 | 22 | 13.7 | 9.5 | 8.5 | 17.4 | 33.7 | [NMeA]NSWYINIWGHD (lactam N-12) [PP15]

More lines, now with the values behind:

Row | Binder | AS-MS ratio(%) [1] [%] | IC50, phosphorylation by IKKβ [2] [µM] | IC50, phosphorylation by IKKβ [3] [µM] | IC50, phosphorylation by IKKβ [4] [µM] | IC50 [5] [µM] | IC50, phosphorylation by TBK1 [6] [µM] | IC50, phosphorylation by TBK1 [7] [µM] | IC50, phosphorylation by TBK1 [8] [µM] | IC50 [9] [µM]
7 | [NMeA]NSWYKIWGLD (lactam N-11) [PP21] | 15.1 | 39.3 | 19.6 | 37.2 | 5.6 | 11.7 | 13.5 | 17 | 20.7
8 | [NMeA]VFYKIWYNWD (lactam N-11) [PP19] | 2.1 | 12.6 | 5.4 | 10.1 | 2.4 | 4.6 | 3.7 | 5.8 | 5.8
9 | [dNMeA]TYGHSSWYKIWD (lactam N-13) [PP9] | 14.8 | 6.4 | 2.7 | 6.2 | 8.3 | 6.6 | 4.2 | 7.9 | 10.6
10 | [NMeA]NFNSAYYRAIWD (lactam N-13) [PP7] | 15.8 | 4.5 | 0.8 | 3 | 17.9 | 4.7 | 2.2 | 4.6 | 15.1
11 | [NMeA]KFWIHHSFED (lactam N-11) [PP20] | 85 | > 62.1 | 24.7 | > 62.1 | 47.6 | > 62.1 | 38.5 | > 62.1 | > 62.1
12 | [NMeA]RYAVYQWIYPD (lactam N-12) [PP12] | 21 | 27 | 6.8 | 20.7 | > 62.1 | 22.5 | 12.7 | 19.6 | > 62.1
13 | [NMeA]WIWDFWNED (lactam N-10) [PP24] | 51.1 | 4 | 5.3 | 7.2 | 7.7 | 27.3 | 35.7 | 34.8 | 8.8
14 | [NMeA]NFSNSWYNIWD (lactam N-12) [PP16] | 17.9 | 30.8 | 20.6 | 42.2 | 20.2 | 38.1 | 52.4 | > 62.1 | > 62.1
15 | [NMeA]NYQSWYYRSIWD (lactam N-13) [PP10] | 3.7 | 2.6 | 0.5 | 1.8 | 9.8 | 0.2 | 0.2 | 0.4 | 11.4
16 | [dNMeA]SKYWNSWYNIWD (lactam N-13) [PP8] | 6.2 | 7.8 | 1.4 | 5.7 | 6.5 | 5.5 | 2.9 | 6 | 7.4
17 | [NMeA]DIWFDYWDWD (lactam N-11) [PP17] | 67.8 | 0.3 | 0.5 | 0.7 | < 0.06 | 0.3 | < 0.06 | < 0.06 | < 0.06
